The labels stand for the following.
T1: PUF4 RNA-binding domain (Saccharomyces cerevisiae, UniProt P25339 537-888)
T1 sequence: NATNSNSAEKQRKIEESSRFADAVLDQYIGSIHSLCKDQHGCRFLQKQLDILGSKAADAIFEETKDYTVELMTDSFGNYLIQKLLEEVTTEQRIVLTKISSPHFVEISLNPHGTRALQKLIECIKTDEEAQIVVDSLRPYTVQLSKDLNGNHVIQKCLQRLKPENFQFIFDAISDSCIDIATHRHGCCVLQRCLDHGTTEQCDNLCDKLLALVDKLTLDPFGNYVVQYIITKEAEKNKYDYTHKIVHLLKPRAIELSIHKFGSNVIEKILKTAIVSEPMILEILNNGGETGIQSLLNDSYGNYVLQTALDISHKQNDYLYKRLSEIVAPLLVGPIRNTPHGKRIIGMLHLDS

B1: Ib_S2_P3E.1_K3.1_C3.1_H3.1_A3.1_[A6T]_F3.1_[A8T]_T3.1 (ssRNA)
RNA: UUUGAUUAAUAUGAUAUCGUUCUUUCUUGUAUUUUUUCUUUCUCGAUAUCAUAUUAAUCUUU
B2: Ib_S2_P3E.1_K3.1_C3.1_H3.1_[T1G]_[G2T]_A3.1_F3.1_T3.1 (ssRNA)
RNA: B1 RNA with U28G, G29U, U33A, U35A
B3: Ib_S2_P3E.1_K3.1_C3.1_H3.1_[T1G]_[G2C]_A3.1_F3.1_T3.1 (ssRNA)
RNA: B1 RNA with U28G, G29C, U33A, U35A
B4: Ib_S2_P3E.1_K3.1_C3.1_H3.1_[T1C]_[G2C]_A3.1_F3.1_T3.1 (ssRNA)
RNA: B1 RNA with U28C, G29C, U33A, U35A
B5: Ia_S2_P3E.1_K3.1_C3.1_H3.1_[A4C]_A3.1_F3.1_T3.1 (ssRNA)
RNA: B1 RNA with A31C, U33A, U35A
B6: Ie_S2_P4E.1_K4.1_C4.1_H4.1_A4.1_[+7CC]_F4.1_T4.1 (ssRNA)
RNA: UUUGAUUAAUAUGAUAUCGUUCUUUCUUGUAUAUCCUAUUCUUUCUCGAUAUCAUAUUAAUCUUU
B7: Ie_S2_P4E.1_K4.1_C4.1_H4.1_A4.1_F4.1_[+8TC]_T4.1 (ssRNA)
RNA: B6 RNA with C35U, C36U, U37C
B8: Ie_S2_P4E.1_K4.1_C4.1_H4.1_A4.1_F4.1_[+9TC]_T4.1 (ssRNA)
RNA: B6 RNA with C35U, C36A, A38C
B9: Ie_S2_P4E.1_K4.1_C4.1_H4.1_A4.1_F4.1_[+9CC]_T4.1 (ssRNA)
RNA: B6 RNA with C35U, C36A, U37C, A38C
B10: Ie_S2_P4E.1_K4.1_C4.1_H4.1_A4.1_F4.1_[+8CT]_T4.1 (ssRNA)
RNA: B6 RNA with C35U
B11: Ie_S2_P4E.1_K4.1_C4.1_H4.1_A4.1_F4.1_[+8CC]_T4.1 (ssRNA)
RNA: B6 RNA with C35U, U37C
B12: Ie_S2_P4E.1_K4.1_C4.1_H4.1_A4.1_F4.1_[+8C]_T4.1 (ssRNA)
RNA: UUUGAUUAAUAUGAUAUCGUUCUUUCUUGUAUAUUCAUUCUUUCUCGAUAUCAUAUUAAUCUUU
B13: Ie_S2_P4E.1_K4.1_C4.1_H4.1_A4.1_F4.1_[+9T]_T4.1 (ssRNA)
RNA: B12 RNA with C36A, A37U
B14: Ie_S2_P4E.1_K4.1_C4.1_H4.1_A4.1_F4.1_[+9C]_T4.1 (ssRNA)
RNA: B12 RNA with C36A, A37C
B15: Ie_S2_P4E.1_K4.1_C4.1_H4.1_A4.1_[+6CCCT]_F4.1_T4.1 (ssRNA)
RNA: UUUGAUUAAUAUGAUAUCGUUCUUUCUUGUAUACCCUUUAUUCUUUCUCGAUAUCAUAUUAAUCUUU
B16: Ie_S2_P5E.1_K5.1_C5.1_H5.1_[+1CTC]_A5.1_F5.1_T5.1 (ssRNA)
RNA: B15 RNA with G29C, A31C, U32G, A33U, C34A, C35U, C36U, U37A
B17: Ie_S2_P5E.1_K5.1_C5.1_H5.1_[+1CTT]_A5.1_F5.1_T5.1 (ssRNA)
RNA: B15 RNA with G29C, A31U, U32G, A33U, C34A, C35U, C36U, U37A
B18: Ie_S2_P4E.1_K4.1_C4.1_H4.1_A4.1_F4.1_[+8CTCT]_T4.1 (ssRNA)
RNA: B15 RNA with C34U, C35U, U38C
B19: Ie_S2_P4E.1_K4.1_C4.1_H4.1_A4.1_[+7CCTC]_F4.1_T4.1 (ssRNA)
RNA: B15 RNA with C34U, U38C
B20: Ie_S2_P5E.1_K5.1_C5.1_H5.1_[+1TTC]_A5.1_F5.1_T5.1 (ssRNA)
RNA: B15 RNA with G29U, A31C, U32G, A33U, C34A, C35U, C36U, U37A
B21: Ie_S2_P4E.1_K4.1_C4.1_H4.1_A4.1_F4.1_[+9TCTC]_T4.1 (ssRNA)
RNA: B15 RNA with C34U, C35U, C36A, U38C, A40C
B22: Ie_S2_P4E.1_K4.1_C4.1_H4.1_A4.1_F4.1_[+8CCCT]_T4.1 (ssRNA)
RNA: B15 RNA with C34U, C35U, U37C, U38C
B23: Ie_S2_P4E.1_K4.1_C4.1_H4.1_A4.1_[+7CCCT]_F4.1_T4.1 (ssRNA)
RNA: B15 RNA with C34U, U37C
B24: Ie_S2_P4E.1_K4.1_C4.1_H4.1_A4.1_F4.1_[+8CCTC]_T4.1 (ssRNA)
RNA: B15 RNA with C34U, C35U, U37C, U39C
B25: Ie_S2_P4E.1_K4.1_C4.1_H4.1_A4.1_[+6CTCTC]_F4.1_T4.1 (ssRNA)
RNA: UUUGAUUAAUAUGAUAUCGUUCUUUCUUGUAUACUCUCUUAUUCUUUCUCGAUAUCAUAUUAAUCUUU
B26: Ie_S2_P4E.1_K4.1_C4.1_H4.1_A4.1_F4.1_[+8TTCCT]_T4.1 (ssRNA)
RNA: B25 RNA with C34U, C36U, U39C
B27: Ie_S2_P4E.1_K4.1_C4.1_H4.1_A4.1_F4.1_[+9TTCCT]_T4.1 (ssRNA)
RNA: B25 RNA with C34U, C36A, C38U, U39C, U40C, A41U
B28: Ie_S2_P4E.1_K4.1_C4.1_H4.1_A4.1_F4.1_[+9TCTCT]_T4.1 (ssRNA)
RNA: B25 RNA with C34U, C36A, U40C, A41U
B29: Ie_S2_P4E.1_K4.1_C4.1_H4.1_A4.1_F4.1_[+9CCCTT]_T4.1 (ssRNA)
RNA: B25 RNA with C34U, C36A, U37C, U39C, A41U
B30: Ie_S2_P4E.1_K4.1_C4.1_H4.1_A4.1_F4.1_[+9CCTCT]_T4.1 (ssRNA)
RNA: B25 RNA with C34U, C36A, U37C, U40C, A41U
B31: Ie_S2_P4E.1_K4.1_C4.1_H4.1_A4.1_[+7CTCTC]_F4.1_T4.1 (ssRNA)
RNA: B25 RNA with C34U, U35C, C36U, U37C, C38U, U39C
B32: Ie_S2_P4E.1_K4.1_C4.1_H4.1_A4.1_F4.1_[+8CCTCT]_T4.1 (ssRNA)
RNA: B25 RNA with C34U, U37C, C38U, U39C
B33: Ie_S2_P4E.1_K4.1_C4.1_H4.1_A4.1_[+6CCCTT]_F4.1_T4.1 (ssRNA)
RNA: B25 RNA with U35C, C38U
B34: Ie_S2_P4E.1_K4.1_C4.1_H4.1_A4.1_F4.1_[+9CTCTC]_T4.1 (ssRNA)
RNA: B25 RNA with C34U, C36A, U37C, C38U, U39C, A41C
B35: Ie_S2_P4E.1_K4.1_C4.1_H4.1_A4.1_F4.1_[+8TCTCT]_T4.1 (ssRNA)
RNA: B25 RNA with C34U, C36U, U37C, C38U, U39C
B36: Ie_S2_P4E.1_K4.1_C4.1_H4.1_A4.1_[+7CCC]_F4.1_T4.1 (ssRNA)
RNA: UUUGAUUAAUAUGAUAUCGUUCUUUCUUGUAUAUCCCUAUUCUUUCUCGAUAUCAUAUUAAUCUUU
B37: Ie_S2_P4E.1_K4.1_C4.1_H4.1_A4.1_F4.1_[+8CTC]_T4.1 (ssRNA)
RNA: B36 RNA with C35U, C37U, U38C
B38: Ie_S2_P5E.1_K5.1_C5.1_H5.1_[+1CC]_A5.1_F5.1_T5.1 (ssRNA)
RNA: B36 RNA with G29C, U30C, A31G, C35U, C36A, C37U
B39: Ie_S2_P4E.1_K4.1_C4.1_H4.1_A4.1_F4.1_[+8TCC]_T4.1 (ssRNA)
RNA: B36 RNA with C35U, C36U, U38C
B40: Ie_S2_P4E.1_K4.1_C4.1_H4.1_A4.1_F4.1_[+9TTC]_T4.1 (ssRNA)
RNA: B36 RNA with C35U, C36A, C37U, A39C
B41: Ie_S2_P4E.1_K4.1_C4.1_H4.1_A4.1_F4.1_[+9CCC]_T4.1 (ssRNA)
RNA: B36 RNA with C35U, C36A, U38C, A39C
B42: Ie_S2_P4E.1_K4.1_C4.1_H4.1_A4.1_F4.1_[+8CCT]_T4.1 (ssRNA)
RNA: B36 RNA with C35U
B43: Ie_S2_P4E.1_K4.1_C4.1_H4.1_A4.1_[+7CTC]_F4.1_T4.1 (ssRNA)
RNA: B36 RNA with C36U
B44: Ie_S2_P4E.1_K4.1_C4.1_H4.1_A4.1_F4.1_[+9TTT]_T4.1 (ssRNA)
RNA: B36 RNA with C35U, C36A, C37U, A39U
B45: Ie_S2_P5E.1_K5.1_C5.1_H5.1_[+1CCC]_A5.1_F5.1_T5.1 (ssRNA)
RNA: UUUGAUUAAUAUGAUAUCGUUCUUUCUUCCCGUAUUAUUAUUCUUUCUCGAUAUCAUAUUAAUCUUU
B46: Ie_S2_P5E.1_K5.1_C5.1_H5.1_[+1TCC]_A5.1_F5.1_T5.1 (ssRNA)
RNA: B45 RNA with C29U
B47: Ie_S2_P5E.1_K5.1_C5.1_H5.1_[+1TCT]_A5.1_F5.1_T5.1 (ssRNA)
RNA: B45 RNA with C29U, C31U

Changes are numbered by the printed parent chain. Names may count otherwise.

The target in the series is T1, PUF4 RNA-binding domain. The experiment in a line: Mg; RNA-MaP; 20 mM Na-HEPES pH 7.4, 30 mM KOAc, 0.75 mM MgCl2, 0.1% Tween-20, 5% glycerol, 0.1 mg/mL BSA, 2 mM DTT; 25 C; 0.0125-409.6 nM protein. The following applies: tags: N-His6-TEV cleaved; C-SNAP kept, Cy3B-labelled; label: tethered on chip by stalled RNA polymerase.
Turning to B1, binding was characterised by a dissociation constant (Kd) of 10.5 nM.
Take B2: the Kd worked out at 15.6 nM.
In the case of B3, binding was characterised by a dissociation constant (Kd) of 798 nM.
In turn, B4 gave a Kd of 495 nM.
For B5 the value was 184 nM.
For B6 the value was 11.7 nM.
With B7 the figure was 6.93 nM; with B8, 0.411 nM; with B9, 0.543 nM.
B10 displayed a dissociation constant (Kd) of 3.57 nM.
As to B11, the Kd was found to be 5.04 nM. This Kd and that of the molecule before are within 1.5-fold of each other.
In turn, B12 showed a dissociation constant Kd of 6.81 nM.
With B13 the figure was 0.265 nM; with B14, 1.33 nM.
With B15 the figure was 26.5 nM; with B16, 355 nM.
B17 had a Kd of 1.16 nM. Compared with the last molecule, the Kd is about 310-fold lower.
For B18 the value was 4.74 nM; for B19, 12.2 nM; for B20, 374 nM.
B21 registered a Kd of 0.324 nM. Compared with the last molecule, the Kd is about 1200-fold lower.
For B22 the value was 3.71 nM; for B23, 10.1 nM; for B24, 4.56 nM.
Turning to B25, binding was characterised by a dissociation constant (Kd) of 6.56 nM.
With B26 the figure was 3.81 nM; with B27, 0.282 nM.
With B28 the figure was 0.382 nM.
For B29 the value was 0.523 nM; for B30, 0.733 nM; for B31, 9 nM.
For B32, the affinity, expressed as Kd, was 4.43 nM.
B33 had a Kd of 20.8 nM. This Kd is about 4.7-fold higher than that of the molecule before.
For B34 the value was 0.532 nM; for B35, 3.78 nM.
With B36 the figure was 13.5 nM; with B37, 5.23 nM; with B38, 565 nM.
With B39 the figure was 3.54 nM; with B40, 0.446 nM; with B41, 0.512 nM.
The molecule B42 gave a Kd of 3.9 nM.
With B43 the figure was 8.21 nM.
With B44 the figure was 0.208 nM.
With B45 the figure was 178 nM; with B46, 198 nM.
As for B47, the Kd is 1.14 nM.

As usually defined, the Kd is the free concentration of one partner at which half of the binding sites on the other are occupied at equilibrium, for simple one-to-one binding. A low value points to tighter binding.

These data come from paper PMC9352680, “A comprehensive thermodynamic model for RNA binding by the Saccharomyces cerevisiae Pumilio protein PUF4”.
